Drawing on the Human Domainome abundance scans (Beltran et al. 2025), this text covers abundance fitness for 51 variants.

± gives the uncertainty stated by the source.

B1: Homeobox protein SIX6, residues 134 to 184; numbered along this chain, O95475 (parent)
chain: CFKERTRHLLREWYLQDPYPNPSKKRELAQATGLTPTQVGNWFKNRRQRDR

This data set covers variants of B1. In words: abundance fitness (aPCA) (normalised: wild type 0, dead -1); higher = more abundant; growth selection in yeast, the domain comes from the species named. To be noted: Homo sapiens.
On to CFKERTRHLLREWYLQDPYPNPEKKRELAQATGLTPTQVGNWFKNRRQRDR [S23E], for which the abundance fitness came to 0.186 ± 0.1.

As to CFKERTRHLLREWYLQDPYPNPDKKRELAQATGLTPTQVGNWFKNRRQRDR [S23D], the abundance fitness was found to be 0.038 ± 0.13.

As to CFKERTRHLLREWYLQDPYPNPFKKRELAQATGLTPTQVGNWFKNRRQRDR [S23F], the abundance fitness was -0.272 ± 0.16.

Regarding CFKERTRHLLREWYLQDPYPNPAKKRELAQATGLTPTQVGNWFKNRRQRDR [S23A], the abundance fitness was 0.012 ± 0.077.

As for CFKERTRHLLREWYLQDPYPNPGKKRELAQATGLTPTQVGNWFKNRRQRDR [S23G], the abundance fitness is -0.328 ± 0.088.

For the variant CFKERTRHLLREWYLQDPYPNPCKKRELAQATGLTPTQVGNWFKNRRQRDR [S23C], the abundance fitness was -0.444 ± 0.15.

Take CFKERTRHLLREWYLQDPYPNASKKRELAQATGLTPTQVGNWFKNRRQRDR [P22A]: the abundance fitness is -0.109 ± 0.071.

On to CFKERTRHLLREWYLQDPYPNKSKKRELAQATGLTPTQVGNWFKNRRQRDR [P22K], for which the abundance fitness was -0.833 ± 0.29.

On to CFKERTRHLLREWYLQDPYPNFSKKRELAQATGLTPTQVGNWFKNRRQRDR [P22F], for which the abundance fitness was -0.241 ± 0.1.

Consider CFKERTRHLLREWYLQDPYPNWSKKRELAQATGLTPTQVGNWFKNRRQRDR [P22W], for which the abundance fitness was -0.281 ± 0.15.

Turning to CFKERTRHLLREWYLQDPYPNESKKRELAQATGLTPTQVGNWFKNRRQRDR [P22E], the abundance fitness was found to be 0.104 ± 0.088.

Consider CFKERTRHLLREWYLQDPYPNLSKKRELAQATGLTPTQVGNWFKNRRQRDR [P22L], for which the abundance fitness was 0.161 ± 0.076.

For CFKERTRHLLREWYLQDPYPNTSKKRELAQATGLTPTQVGNWFKNRRQRDR [P22T], the abundance fitness is -0.076 ± 0.14.

As for CFKERTRHLLREWYLQDPYPNGSKKRELAQATGLTPTQVGNWFKNRRQRDR [P22G], the abundance fitness amounted to 0.087 ± 0.068.

Regarding CFKERTRHLLREWYLQDPYPNHSKKRELAQATGLTPTQVGNWFKNRRQRDR [P22H], the abundance fitness is -0.467 ± 0.11.

As to CFKERTRHLLREWYLQDPYPNYSKKRELAQATGLTPTQVGNWFKNRRQRDR [P22Y], the abundance fitness was -0.424 ± 0.38.

CFKERTRHLLREWYLQDPYPNVSKKRELAQATGLTPTQVGNWFKNRRQRDR [P22V]: the abundance fitness is -0.682 ± 0.16.

As for CFKERTRHLLREWYLQDPYPNDSKKRELAQATGLTPTQVGNWFKNRRQRDR [P22D], the abundance fitness was determined as 0.307 ± 0.14.

Turning to CFKERTRHLLREWYLQDPYPNRSKKRELAQATGLTPTQVGNWFKNRRQRDR [P22R], the abundance fitness is -0.634 ± 0.081.

Turning to CFKERTRHLLREWYLQDPYPNCSKKRELAQATGLTPTQVGNWFKNRRQRDR [P22C], the abundance fitness was determined as 0.146 ± 0.19.

CFKERTRHLLREWYLQDPYPNQSKKRELAQATGLTPTQVGNWFKNRRQRDR [P22Q]: the abundance fitness is -0.352 ± 0.17.

In the case of CFKERTRHLLREWYLQDPYPNSSKKRELAQATGLTPTQVGNWFKNRRQRDR [P22S], the abundance fitness is 0.015 ± 0.081.

For the variant CFKERTRHLLREWYLQDPYPNISKKRELAQATGLTPTQVGNWFKNRRQRDR [P22I], the abundance fitness is -0.618 ± 0.36.

Regarding CFKERTRHLLREWYLQDPYSNPSKKRELAQATGLTPTQVGNWFKNRRQRDR [P20S], the abundance fitness was -0.724 ± 0.17.

Regarding CFKERTRHLLREWYLQDPYTNPSKKRELAQATGLTPTQVGNWFKNRRQRDR [P20T], the abundance fitness is -0.927 ± 0.44.

Take CFKERTRHLLREWYLQDPYYNPSKKRELAQATGLTPTQVGNWFKNRRQRDR [P20Y]: the abundance fitness was -0.559 ± 0.37.

As for CFKERTRHLLREWYLQDPYVNPSKKRELAQATGLTPTQVGNWFKNRRQRDR [P20V], the abundance fitness is -0.613 ± 0.079.

Consider CFKERTRHLLREWYLQDPYRNPSKKRELAQATGLTPTQVGNWFKNRRQRDR [P20R], for which the abundance fitness was -1.02 ± 0.14.

Turning to CFKERTRHLLREWYLQDPYQNPSKKRELAQATGLTPTQVGNWFKNRRQRDR [P20Q], the abundance fitness was -0.796 ± 0.35.

CFKERTRHLLREWYLQDPYWNPSKKRELAQATGLTPTQVGNWFKNRRQRDR [P20W]: the abundance fitness is -1.05 ± 0.16.

Regarding CFKERTRHLLREWYLQDPYMNPSKKRELAQATGLTPTQVGNWFKNRRQRDR [P20M], the abundance fitness was -0.817 ± 0.067.

CFKERTRHLLREWYLQDPYLNPSKKRELAQATGLTPTQVGNWFKNRRQRDR [P20L]: the abundance fitness was -0.411 ± 0.071.

Turning to CFKERTRHLLREWYLQDPYPDPSKKRELAQATGLTPTQVGNWFKNRRQRDR [N21D], the abundance fitness is 0.218 ± 0.094.

For the variant CFKERTRHLLREWYLQDPYPWPSKKRELAQATGLTPTQVGNWFKNRRQRDR [N21W], the abundance fitness is -0.817 ± 0.22.

As to CFKERTRHLLREWYLQDPYPGPSKKRELAQATGLTPTQVGNWFKNRRQRDR [N21G], the abundance fitness is -0.238 ± 0.1.

With CFKERTRHLLREWYLQDPYPLPSKKRELAQATGLTPTQVGNWFKNRRQRDR [N21L], the abundance fitness is -0.149 ± 0.072.

Take CFKERTRHLLREWYLQDPYPHPSKKRELAQATGLTPTQVGNWFKNRRQRDR [N21H]: the abundance fitness turned out to be 0.337 ± 0.16.

In the case of CFKERTRHLLREWYLQDPYPYPSKKRELAQATGLTPTQVGNWFKNRRQRDR [N21Y], the abundance fitness is -0.725 ± 0.33.

With CFKERTRHLLREWYLQDPYPAPSKKRELAQATGLTPTQVGNWFKNRRQRDR [N21A], the abundance fitness was -0.222 ± 0.099.

Take CFKERTRHLLREWYLQDPYPQPSKKRELAQATGLTPTQVGNWFKNRRQRDR [N21Q]: the abundance fitness was -0.105 ± 0.076.

Consider CFKERTRHLLREWYLQDPYPVPSKKRELAQATGLTPTQVGNWFKNRRQRDR [N21V], for which the abundance fitness was -0.199 ± 0.1.

On to CFKERTRHLLREWYLQDPYPMPSKKRELAQATGLTPTQVGNWFKNRRQRDR [N21M], for which the abundance fitness was -0.049 ± 0.26.

On to CFKERTRHLLREWYLQDPYPTPSKKRELAQATGLTPTQVGNWFKNRRQRDR [N21T], for which the abundance fitness came to 0.155 ± 0.049.

For CFKERTRHLLREWYLQDPYPIPSKKRELAQATGLTPTQVGNWFKNRRQRDR [N21I], the abundance fitness was -0.672 ± 0.47.

For CFKERTRHLLREWYLQDPYPPPSKKRELAQATGLTPTQVGNWFKNRRQRDR [N21P], the abundance fitness is -0.505 ± 0.4.

For the variant CFKERTRHLLREWYLQDPYPEPSKKRELAQATGLTPTQVGNWFKNRRQRDR [N21E], the abundance fitness was -0.129 ± 0.2.

As to CFKERTRHLLREWYLQDPYPKPSKKRELAQATGLTPTQVGNWFKNRRQRDR [N21K], the abundance fitness was -0.417 ± 0.35.

As for CFKERTRHLLREWYLQDPYPFPSKKRELAQATGLTPTQVGNWFKNRRQRDR [N21F], the abundance fitness is -0.839 ± 0.071.

With CFKERTRHLLREWYLQDPYPSPSKKRELAQATGLTPTQVGNWFKNRRQRDR [N21S], the abundance fitness is -0.071 ± 0.098.

Regarding CFKERTRHLLREWYLQDPYPRPSKKRELAQATGLTPTQVGNWFKNRRQRDR [N21R], the abundance fitness is -0.437 ± 0.12.

Take CFKERTRHLLREWYLQDPYPCPSKKRELAQATGLTPTQVGNWFKNRRQRDR [N21C]: the abundance fitness was -0.079 ± 0.073.
